B1: Atlastin-1 (Homo sapiens), Q8WXF7 (parent)
chain: MAKNRRDRNSWGGFSEKTYEWSSEEEEPVKKAGPVQVLIVKDDHSFELDETALNRILLSEAVRDKEVVAVSVAGAFRKGKSFLMDFMLRYMYNQESVDWVGDYNEPLTGFSWRGGSERETTGIQIWSEIFLINKPDGKKVAVLLMDTQGTFDSQSTLRDSATVFALSTMISSIQVYNLSQNVQEDDLQHLQLFTEYGRLAMEETFLKPFQSLIFLVRDWSFPYEFSYGADGGAKFLEKRLKVSGNQHEELQNVRKHIHSCFTNISCFLLPHPGLKVATNPNFDGKLKEIDDEFIKNLKILIPWLLSPESLDIKEINGNKITCRGLVEYFKAYIKIYQGEELPHPKSMLQATAEANNLAAVATAKDTYNKKMEEICGGDKPFLAPNDLQTKHLQLKEESVKLFRGVKKMGGEEFSRRYLQQLESEIDELYIQYIKHNDSKNIFHAARTPATLFVVIFITYVIAGVTGFIGLDIIASLCNMIMGLTLITLCTWAYIRYSGEYRELGAVIDQVAAALWDQGSTNEALYKLYSAAATHRHLYHQAFPTPKSESTEQSEKKKM
partner: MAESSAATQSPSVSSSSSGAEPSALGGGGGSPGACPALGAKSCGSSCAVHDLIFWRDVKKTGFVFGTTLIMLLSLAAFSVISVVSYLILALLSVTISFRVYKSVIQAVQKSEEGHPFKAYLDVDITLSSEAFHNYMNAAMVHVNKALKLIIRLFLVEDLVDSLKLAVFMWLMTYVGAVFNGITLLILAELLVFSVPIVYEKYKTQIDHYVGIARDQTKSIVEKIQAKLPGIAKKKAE

Variants of: B1
Conditions: with Rtn3, Q9ES97-3

Row | effect of a mutation on the interaction | Variant
1 | decreasing interaction | K80A

— IntAct's records for PubMed 19665976
